According to the DeepSol protein solubility set:

Test: soluble on expression in E. coli; label from the status in PepcDB or PDB records
For “MSLTVIIKSMETPEEIEGKSLVHWQTWRESYDDLLPAEFQDTMTLERCRFFSQKYPENTLIAMDGVKVVGFISYGNFRDETIQAGEIIALYVLKDYYGKGIAQKLMKAALTALNHFSEIFLWVLKDNKRAIAFYQKMGFTFDGQEKILELGKPIKEKRMVFYSKEGHHHHHH”, the “soluble on expression in E. coli” value was “soluble”. With “MSLTYPVLKGAGYVLIHTPDMIVQNGSTCTVERATNPDSEFLKEVSNHIRSYEDVVNYMPNQVYIGNRRPEELRDLPMPWCEQKIEGTRNGKFGEIMPQDEFIALMQISDAFDLVKLSQEFIDEVKPKIENNYPEIAPFVGKLKGDDIEEGKELVATHIAEGLYHDGKFVGYVKRAHDVDVNLNAHTMFENLVVKASGVLSAIQMLRHSKIDPAEIDYVIECSEEACGDINQRGGGNFAKSIAEIAGLQNATGSDTRGFCAAPTHALIQAAALVKAGIHKNVMVVAGGASAKLGMNAKDHVKKGLPVLEDVVGGFAVLVSENDGVNPVIRTDLTGKHTVGTGSSPQAVMTALITSGLDRANLKITDVDVYSVEMQNPDITKPAGAGDVPEANYKMIGALAVKRGDLEKKELKDFVSNKGLPGWAPTQGHIPSGAPYIGFLIDDLTTGNRNRAMIVGKGSLFLGRMTNLFDGVSFIAERNTGVTEETSGISKDEIKKIIAESMKKLALDMLEEGHHHHHH” the “soluble on expression in E. coli” value was “soluble”. For “MSLTYYFSGTIDRVIFENTSNFFKIILLEIDDTDSDFDDFEIIVTGTIADVIEGENYTFWGELTQHPKYGQQLKVERYQRAKPSSAGLIKYFSSQHFKGIGKKTAEKIIHLYGDDPIDNILEDPDKLESISGLSKANRENLVSKLRLNYGAEQILAKLAEYGLNNKTAVQIFERYKEESLTVITENPYQLVEDIQGIGFKMADKLAEQVGINSDAPQRFRAALVHTLLETSIDKGDTYIEAKELLEKSLFILEEVRQVELDPSQIAQELTQLISEDKVQNIGTKIFDNTLFYAESGIHKHLTRILDRPLEKEISSQDIQTEIKHIQAEFNINYDKAQKNAIQKAIQSKVFLLTGGPGTGKTTVINGIIKAYANLHQIDLQKSDRPIILAAPTGRAARRMNELTGLPSATIHRHLGLNGDSEYQALDDFLDCDLIIIDEFSMVDTWLANQLFSAIASNTQVIIVGDSDQLPSVGPGQILADLLKINRLPQVSLTKIFRQSEDSTIVTLANQIRQGRLPTDFTAKKADRSYFEAQSTHIPQMIQKIVSSALKSGIDAQEIQILAPMYRGQAGITHLNKLMQDLLNPLNNQLEFQFNDLHFRKGDKVLHLINDAQINVFNGDIGYITDLIPAKYTESKQDEMILDFDGTEINYPRNEWLKITLAYAMSIHKSQGSEFKVVILPVTRQSGRLLQRNLIYTAITRSKSKLVMLGEIAAFDNAIKNEGTKRKTYLIERFKKDECSGHHNTEKNKQGVKESAAILKEDFILTERNILTIDPMIGLSQADIDLFFKKEGHHHHHH”, the “soluble on expression in E. coli” value was “soluble”. With “MSLVDQIKSYVAMRKYSIKRDEHGIVRLQLNNKDLFQFGPLDQGWWPDGLYTAPTDEALRYDIEKTKDFGFNMIRKHIKVEPARWYTYCDQIGLIVWQDMPSGDKSPEWQNRKYFEGTELTRSAESEETYRKEWKEVIDCLYSYPCIGTWVPFNEAWGQFKTQEIAEWTKQYDPSRLVNPASGGNHYTCGDMLDLHHYPGPEMFLYDAQRATVLGEYGGIGLVLKDHLWEPNRNWGYIQFNTSAEATAEYLKYAGILKDMISRGFSAAVYTQTTDVEVEVNGLMTYDRKVIKLDESKLKKMNTEICNSLKEGHHHHHH” the “soluble on expression in E. coli” value was “not soluble”. In the case of “MSLVEDVKGVGFKTADKIASSLGIEADSPNRFRAALMHEVNTHSQSTGDTYIEAKNLLEMTIDLLEEARNVEVNPSAVAEEINGLIVDGKVQQEGTKIFENSLYFAEDGIRKSLTALTNRSGKDFADEKLLTVLAEVERDLEITYDDLQKQAIIGAMNQQFFILTGGPGTGKTTIINGFIETYARLHQLDLDPDHYNDDVFPILLAAPTGRASRRMNELTGLPAATIHRHLGLGQDEAEDALGNELSGALLIVDEFSMVDTWLANKLFQAIPGSMKVLLVGDADQLPSVGPGQIFADLLKIPEIPSVKLDKIFRQGDDSTITDLAHHIKDGQLPSDFTAKKPDRSYFEVSANFVPQMVEQIASAWQKRGNNPFELQILAPMYKGMAGINAMNVLLQNLFNPLNDRLEFALGDMKFREGDKVLHLVNDAEANVFNGDLGQIVELIAAKYTDSKQDELVMDFDGQELTYPRAEWYKITLAYAMSIHKSQGSEFSTVIVPMVSSYSRMLERNLLYTAITRAKQSLILLGEERAFAQAVAREGANRKTYLIERFMGENEGHHHHHH”, the “soluble on expression in E. coli” value is reported as “soluble”. In the case of “MSLVGGFPHHPVVHHEGYPFAAAAAAAAAAAASRCSHEENPYFHGWLIGHPEMSPPDYSMALSYSPEYASGAAGLDHSHYGGVPPGAGPPGLGGPRPVKRRGTANRKERRRTQSINSAFAELRECIPNVPADTKLSKIKTLRLATSYIAYLMDLLAKDDQNGEAEAFKAEIKKTDVKEEKRKKELNEILKSTVSSNDKKTKGRTGWPQHVWALELKQ”, the “soluble on expression in E. coli” value is reported as “not soluble”. For “MSLVGNMNREALFKTLTTGYLHFWSLSRKKLWLKGETSGNFQIIEEFKVDCDADAVLFKVTSLGPICHTGNYTCFYRSYDELVNSKSEGHHHHHH”, the “soluble on expression in E. coli” value was “not soluble”. In the case of “MSLVKAVLFDIDGTLLSEKPLIMFILPQVYDELANKLNISRMEARRIFLSEIEKRKGKYEWHDWNFFFRLFSLPFKYEDFIMKYPTKIEVFPGVVEVLKYLKERGYRLGIVTSGPRYQVLKLKVSGIYRYFDVVVTRDDVGSIKPEPRIFLAALEKLKISPKDAVMVGDSLEQDILGAKGVGMKSVWINVGGENGYNLPDFEISSILQLPEVIEDESDIEGHHHHHH”, the “soluble on expression in E. coli” value is reported as “soluble”. For “MSLVMVVDGSKLVRKLITDVLRRELPEVDVIGCVGIAEARQTLEAGTVDLVTTSLFLPDGDGLALARSVREEAGQAYVPVIVVSGDTQQHLVERRFTEYVTDYFDKALGHEALAAFIRGYVQPEPVSSGTVLYVEDSCVVAEATTRMLERQGLRVVHVLTAEDAFALLTAESLGRTEYRINLVLTDVTLKGELSGCDVVQRIRIDFSYGKRRLPVLVMTGDTNSQNQSELLRAGANDLVQKPIEERLLVTKVLFQLRLARLKDDLATIEGHHHHHH”, the “soluble on expression in E. coli” value was “not soluble”. With “MSLVRNSSRLLRSQLKRVQSVPVALYHENVVEHYENPRNVGSLDKKDVTVGTGLVGAPACGDVMKLQIKVDENGKIVDAKFKTFGCGSAIASSSLATEWVKGKSIDEAGKLKNTDIAKELRLPPVKLHCSMLAEDAIKAALADYKVKQQKKVAN” the “soluble on expression in E. coli” value was “not soluble”. In the case of “MSLVTNKLGRDIPQPYADQYGVFEGELANIKQYDESSRRIKPVKPGDSKLLGSVREAIEKTGLTDGMTISFHHHFREGDFIMNMVLEEIAKMGIKNLSIAPSSIANVHEPLIDHIKNGVVTNITSSGLRDKVGAAISEGLMENPVVIRSHGGRARAIASGDIHIDVAFLGAPSSDAYGNVNGTKGKATCGSLGYAMIDAKYADQVVILTDNLVPYPNTPISIPQTDVDYVVTVDAIGDPQGIAKGATRFTKNPKELLIAEYAAKVITNSPYFKEGFSFQTGTGGASLAVTRFMREAMIKENIKASFALGGITNAMVELLEEELVEKILDVQDFDHPSAVSLGKHAEHYEIDANMYASPLSKGAVINQLDTCILSALEVDTNFNVNVMTGSDGVIRGASGGHCDTAFAAKMSLVISPLIRGRIPTFVDEVNTVITPGTSVDVIVTEVGIAINPNRQDLVDHFKSLNVPQFSIEELKEKAYAIVGTPERIQYGDKVVALIEYRDGSLMDVVYNVEGHHHHHH”, the “soluble on expression in E. coli” value is reported as “soluble”. With “MSLYDVTEWKHVFKLDPNKDLPDEQLEILCESGTDAVIIGGSDGVTEDNVLRMMSKVRRFLVPCVLEVSAIEAIVPGFDLYFIPSVLNSKNADWIVGMHQKAMKEYGELMSMEEIVAEGYCIANPDCKAAALTEADADLNMDDIVAYARVSELLQLPIFYLEYSGVLGDIEAVKKTKAVLETSTLFYGGGIKDAETAKQYAEHADVIVVGNAVYEDFDRALKTVAAVKGEEGGSHHHHHH” the “soluble on expression in E. coli” value was “soluble”. For “MSLYIDGTFSYSLYRKICTDRSAVNKASNTQESSVAKPSIIKTSENPLQTIEVEVYDEYGEKLVKSIACERPLTVLLNWKEIVTLMTLGSRPEALVLGYLKNQSFISDPEALDSIIIDWETHSAAVVTRENIDHLEPALKKKTVTSGCGQGTMYGNVMKQLEHYQVPQQPIKQSQIYAALEALTHYNDTYKKAGAVHGCAICQEDRVLSFVEDVGRHNAVDTLAGEMWLNGMRGDDKIFYTTGRLTSEMVIKVAQMGIPVLLSRSGVTQMGLELAQRFGITTIARASGRRFHVYSGADKMVFDVKGHSEEAEGHHHHHH”, the “soluble on expression in E. coli” value was “soluble”. For “MSLYLWNIQISSAFLEVISLYEVTLRNTLVKALEPNYRQYSILNDNFIRALRHETREALIVAVNKVSLNSHKYSAVRGAHGMIQPLKIDPRDVPVGKVVAELNFVFWENMLSKTHSSRWKAHYKEAFPNLVVEPNIGIECQIARIHQITGKVRELRNRICHHEPIFDENKINLSELYTQIKEVLNYISRLDKYTKEGHHHHHH”, the “soluble on expression in E. coli” value was “not soluble”. For “MSLYPAEHKEVMVQLMNQGNRSSLMQAWIDDGDTSLPPEKIQVPFMLTPPVAKIGANSGQQVKIKIMPNKLPTNKESIFYLNVLDIPPNSPEQEGKNALKFAMQNRIKLFYRPAGIAPVNKVTFKKLLVNRSGNGLVIKNDSANWVTISDVKANNVKVNYETIMIAPLESQSVNVKSNNANNWHLTIIDDHGNYISDKEGHHHHHH”, the “soluble on expression in E. coli” value was “not soluble”. In the case of “MSLYYEQPIYIATQENWDLELNPQIRTNRGFGLYSTLRFLDSPYSTGELNFGAFRENSSYFHDENLKNQTHYGIELKYSRDDLIKSLLSDNFQEGLWIDATYLNDVDYLNLGSRDYRDLNSLVTSKINYFLADENNFYGAYARYYIDTSKLSNNTTLQEYPSFQYHRFLNNLFDERLRYSFDASFHNFYRPAGSYANELNLDLPISYHNAFFGDFLHFTFTERFYASFVNYSNDPERNHEHYFRNTHDFNLYTDLSKAYENFFHTLNLGVNYILPGAKSGKITQDYLEEYDKENEHTSLYAVQYFYNNEGQKKLKHRISLDYLNKQNEFYELENLLTYYFNENINLNSEVLYSYEQSRFTNVISQIEVNTNSKFNWMFSHAYQNDEYGKYSFIGTRANYIATPNYNLFGGIWFDTQRAHANMWELGYTYQRKCWNYSLMYRERIDPQLTSGGITAKNQSGVYFIFNFYPLGGVKYDFSLAESENKIEGHHHHHH”, the “soluble on expression in E. coli” value is reported as “not soluble”. For “MSMENFAQLLEESFTLQEMNPGEVITAEVVAIDQNFVTVNAGLKSESLIDVAEFKNAQGEIEVKVGDFVTVTIESVENGFGETKLSREKAKRAADWIALEEAMENGNILSGIINGKVKGGLTVMISSIRAFLPGSLVDVRPVKDTSHFEGKEIEFKVIKLDKKRNNVVVSRRAVLEATLGEERKALLENLQEGSVIKGIVKNITDYGAFVDLGGIDGLLHITDLAWRRVKHPSEVLEVGQEVEAKVLKFDQEKQRVSLGMKQLGEDPWSGLTRRYPQATRLFGKVSNLTDYGAFVEIEQGIEGLVHVSEMDWTNKNVHPSKVVQLGDEVEVMILEIDEGRRRISLGMKQCQANPWEEFAANHNKGDKISGAVKSITDFGVFVGLPGGIDGLVHLSDLSWTESGEEAVRKYKKGEEVEAVVLAIDVEKERISLGIKQLEGDPFGNFISVNDKGSLVKGSVKSVDAKGAVIALSDEVEGYLPASEFAADRVEDLTTKLKEGDEVEAVIVTVDRKNRSIKLSVKAKDAKESREALNSVNAAANANAGTTSLGDLLKAKLSGEQELEHHHHHH”, the “soluble on expression in E. coli” value was “not soluble”. For “MSMLKKTKEFFGLAPYEAEHEDAYYADEPRYEGTAAYAPEYRERDYGYAPEAPAPVAPSPAPRSYQSTIVPVELHSFEDAQVIGGAFRDGDAVVFDMSLLSREEARRIVDFAAGLCFALRGKMQKIDSVTFAVVPELSNISTSELERAARIRAAALEHHHHHH”, the “soluble on expression in E. coli” value was “soluble”. With “MSMPYDNEAKIKQAVILLQKIVNDTSVPRNIRRAATDAIRNLQDLGLSPAVRAANAIGILEDISQDPNMPTHARISIWNVVSILETVKD” the “soluble on expression in E. coli” value was “not soluble”.
